Test [1] concerns the target T1, human GITR-Fc (human, UniProt Q9Y5U5 26-162, conjugated with europium cryptate in the HTRF assays).
T1 construct: also called hGITR-Fc; hGITRFc; not shown: Fc domain of hIgG1
T1 sequence: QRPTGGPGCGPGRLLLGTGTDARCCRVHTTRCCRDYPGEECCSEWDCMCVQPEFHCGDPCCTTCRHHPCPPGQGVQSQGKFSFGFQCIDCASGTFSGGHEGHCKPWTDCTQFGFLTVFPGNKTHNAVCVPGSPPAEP
Put plainly: HTRF competition; competitor GITRL-HA on GITR-Fc. Here is the method:
The effect of the hexameric GITRL FP molecules on human GITRL binding to human GITR was determined using a Homogeneous Time Resolved Fluorescence (HTRF) assay.
(§1) The hexameric GITRL FP molecules were titrated into an HTRF assay in which binding of GITRL-HA (hemagglutinin tag) to GITR-Fc was measured. The human GITR Fc was conjugated with europium cryptate and an anti-HA antibody conjugated with XL665 was used to detect the GITRL-HA protein. IC₅₀ values were determined by curve fitting the analyzed data to a four parameter logistic equation with Prism 5.01 software (GraphPad).

The target in test [2] is T2, human GITR expressed on cells (human, UniProt Q9Y5U5 26-241).
T2 sequence: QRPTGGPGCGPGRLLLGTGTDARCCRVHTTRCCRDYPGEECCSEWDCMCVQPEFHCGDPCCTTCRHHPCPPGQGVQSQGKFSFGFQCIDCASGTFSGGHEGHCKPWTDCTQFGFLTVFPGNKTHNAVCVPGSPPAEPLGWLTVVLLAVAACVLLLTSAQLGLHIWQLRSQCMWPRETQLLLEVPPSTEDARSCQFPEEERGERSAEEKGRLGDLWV
The test can be described thus: cell-based or functional assay.

Test [3] deals with T1, human GITR-Fc. The test can be described thus: HTRF direct binding, Eu cryptate hGITR-Fc and anti-FLAG XL665, one site saturation fit. The protocol:
The hGITRL FP molecules were titrated into an HTRF assay in which binding of the hGITRL FP to hGITR-Fc was measured. The human hGITR Fc was conjugated with europium cryptate and an anti-FLAG antibody conjugated with XL665 was used to detect the hGITRL FP protein. KD values were determined by curve fitting the analyzed data to a one site saturation binding equation with Prism 5.01 software (GraphPad).
(In TR-FRET formats the signal depends on donor and acceptor labels being close together.)

Test [4] deals with T1, human GITR-Fc. Put plainly: HTRF competition; competitor GITRL-HA on GITR-Fc. The protocol:
as §1
The effect of a hexameric GITRL IgG1 FP having the monomeric GITRL IgG1 FP subunit sequence of SEQ ID NO: 6 on human GITRL binding to human GITR was determined using a Homogeneous Time Resolved Fluorescence (HTRF) assay. The GITRL IgG1 FP was titrated into an HTRF assay in which binding of GITRL-HA (hemagglutinin tag) to GITR-Fc was measured. The human GITR-Fc was conjugated with europium cryptate and an anti-HA antibody conjugated with XL665 was used to detect the GITRL-HA protein. IC₅₀ values were determined by curve fitting the analyzed data to a four parameter logistic equation with Prism 6.0x software (GraphPad).
This is another data set of the same source.

The target of test [5] is T1, human GITR-Fc. The test can be described thus: HTRF competition: titrated FP against binding of GITRL-HA (anti-HA XL665) to europium cryptate hGITR-Fc. Here is the method: (§2) The effect of the GITRL FP molecules on human GITRL binding to human GITR was determined using a Homogeneous Time Resolved Fluorescence (HTRF) assay.
(§3) The GITRL FP molecules were titrated into an HTRF assay in which binding of GITRL-HA (hemagglutinin tag) to GITR-Fc was measured. The human GITR Fc was conjugated with europium cryptate and an anti-HA antibody conjugated with XL665 was used to detect the GITRL-HA protein. IC₅₀ values were determined by curve fitting the analyzed data to a four parameter logistic equation with Prism 5.01 software (GraphPad).

The target of test [6] is T3, recombinant mouse OX40-Fc (mouse, UniProt P47741 20-211, limits assumed).
T3 construct: Bought reagent; construct not described; not shown: Fc
T3 sequence (looked up): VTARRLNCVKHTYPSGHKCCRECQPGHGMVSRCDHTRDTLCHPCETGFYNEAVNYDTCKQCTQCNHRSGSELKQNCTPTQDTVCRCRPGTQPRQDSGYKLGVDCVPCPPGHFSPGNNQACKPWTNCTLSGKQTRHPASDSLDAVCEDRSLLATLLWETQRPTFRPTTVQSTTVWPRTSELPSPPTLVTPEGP
The test can be described thus: ELISA, coated mouse OX40-Fc, FP at 1 ug/mL, HRP anti-mouse Fc. The protocol: (§4) Recombinant mouse GITR-Fc and OX40-Fc (R&D Systems) glycoproteins were coated overnight at 1 μg/mL in PBS onto 96-well plates (Greiner). Plates were washed with PBST (PBS+0.01% Tween-20), blocked for 1 hour at room temperature with PBS containing 1% (w/v) BSA, and washed in PBST again. Twenty-five microlitres of 1 μg/mL mouse GITRL or OX40L FPs diluted in assay buffer [PBS+1% bovine serum albumin (BSA)] was added to wells, and plates were incubated for 2 hours at room temperature. After 3 washes, 25 μL of 1 μg/mL horseradish peroxidase-conjugated anti-mouse Fc antibody (Sigma) diluted in assay buffer was added to each well, and plates were incubated for 1 hour. After incubation, plates were washed 3 times in PBST, 25 μL of tetramethylbenzidine substrate solution (KPL) was added to each well, and plates incubated for 5 minutes. After incubation 15 μL of 0.5 M sulphuric acid stop solution was added to all wells. The optical density at 450 nm was measured using an EnVision plate reader (PerkinElmer).
In general terms: ELISA stands for enzyme-linked immunosorbent assay.

Test [7] addresses T4, recombinant mouse GITR-Fc (mouse, UniProt O35714 20-153, limits assumed).
T4 construct: Bought reagent; construct not described; not shown: Fc
T4 sequence (looked up): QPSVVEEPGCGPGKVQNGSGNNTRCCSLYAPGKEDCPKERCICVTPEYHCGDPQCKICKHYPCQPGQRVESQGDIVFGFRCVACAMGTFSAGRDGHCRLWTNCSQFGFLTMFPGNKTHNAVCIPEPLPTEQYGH
Put plainly: ELISA, coated mouse GITR-Fc, HRP anti-mouse Fc. Here is the method: as §4

The target of test [8] is T1, human GITR-Fc. Put plainly: HTRF competition: titrated FP against binding of GITRL-HA (anti-HA XL665) to europium cryptate hGITR-Fc. Here is the method:
as §2, §3
The source holds these as a separate data set.

Where a chain is given by its changes, count along the chain named. Numbers in names are those of the source.

B1: hexameric GITRL FP (GCN4 pII) (Fc fusion, not shown: a dimerising Fc or GST; small tags and cut ends)
chain (part 1 of 2): not shown
chain (part 2 of 2): LQLETAKEPCMAKFGPLPSKWQMASSEPPCVNKVSDWKLEILQNGLYLIYGQVAPNANYNDVAPFEVRLYKNKDMIQTLTNKSKIQNVGGTYELHVGDTIDLIFNSEHQVLKNNTYWGIILLANPQFIS
Molecule B1 gave a 50% inhibitory concentration (IC50) with human GITR-Fc [1] of 1.06 nM. Further, the “EC50 (nM), human GITR transfected NF-κB luciferase gene reporter cell line” value (“EC50 (nM)” for short) in test [2] came to 1.02 nM.

B2: hGITRL FP N129A (Fc fusion)
chain: B1 chain (part 2 of 2) with N81A
notes: also called N129A mutated hGITRL FP; not shown: detection with anti-FLAG antibody implies a FLAG e
B2 returned an equilibrium dissociation constant (Kd) with human GITR-Fc [3] of 3.77 nM.

B3: hexameric GITRL FP (Matrilin 1 wt) (Fc fusion, not shown: a dimerising Fc or GST; small tags and cut ends)
chain (part 1 of 2): CACESLVKFQAKVEGLLQALTRKLEAVSKRLAILENTVV
chain (part 2 of 2): B1 chain (part 2 of 2)
Molecule B3 displayed an IC50 in the test with human GITR-Fc [1] of 1.36 nM. Moreover, in test [2], the “EC50 (nM)” value came out at 1.12 nM.

B4: hexameric GITRL FP (DMPK wt) (Fc fusion, not shown: a dimerising Fc or GST; small tags and cut ends)
chain (part 1 of 2): EAEAEVTLRELQEALEEEVLTRQSLSREMEAIRTDNQNFASQLREAEARNRDLEAHVRQLQERMELLQAE
chain (part 2 of 2): B1 chain (part 2 of 2)
Molecule B4 registered an IC50 in the test with human GITR-Fc [1] of 2.73 nM. For the same molecule, in test [2], the “EC50 (nM)” value is 1.37 nM.

B5: hexameric GITRL FP (Coronin 1a wt) (Fc fusion, not shown: a dimerising Fc or GST; small tags and cut ends)
chain (part 1 of 2): VSRLEEEMRKLQATVQELQKRLDRLEETVQAK
chain (part 2 of 2): B1 chain (part 2 of 2)
The molecule B5 yielded an IC50 in the test with human GITR-Fc [1] of 0.61 nM. Further, the “EC50 (nM)” value in test [2] turned out to be 0.95 nM.

B6: hexameric GITRL FP (Langerin wt) (Fc fusion, not shown: a dimerising Fc or GST; small tags and cut ends)
chain (part 1 of 2): ASALNTKIRALQGSLENMSKLLKRQNDILQVVS
chain (part 2 of 2): B1 chain (part 2 of 2)
B6 returned a 50% inhibitory concentration (IC50) with human GITR-Fc [1] of 8.05 nM. Moreover, the “fold lower potency than GITRL FP (GCN4)” value in the test with human GITR-Fc [4] came to 8 fold. The “EC50 (nM)” value in test [2] was found to be 1.54 nM.

B7: hGITRL FP N129A/N161D (Fc fusion)
chain: B1 chain (part 2 of 2) with N81A, N113D
notes: not shown: detection with anti-FLAG antibody implies a FLAG e
For the molecule B7, binding in the test with human GITR-Fc [3] was characterised by a dissociation constant (Kd) of 11.8 nM.

B8: hexameric GITRL FP (Coronin 1a variant) (Fc fusion, not shown: a dimerising Fc or GST; small tags and cut ends)
chain (part 1 of 2): ISRIEEEIRKINATVQELQKRIDRLEETVQAK
chain (part 2 of 2): B1 chain (part 2 of 2)
With B8, the IC50 with human GITR-Fc [1] worked out at 1.44 nM. Moreover, in test [2], the “EC50 (nM)” value turned out to be 0.74 nM.

B9: hGITRL FP N92D (Fc fusion, not shown: a dimerising Fc or GST)
chain: B1 chain (part 2 of 2) with N44D
For B9, the half-maximal inhibitory concentration (IC50) with human GITR-Fc [5] worked out at 0.587 nM.

B10: hGITRL FP N104D (Fc fusion, not shown: a dimerising Fc or GST)
chain: B1 chain (part 2 of 2) with N56D
notes: also called N104D GITRL FP
Molecule B10 gave an IC50 with human GITR-Fc [5] of 0.529 nM.

B11: hexameric GITRL FP (Matrilin 1 variant) (Fc fusion, not shown: a dimerising Fc or GST; small tags and cut ends)
chain (part 1 of 2): B3 chain (part 1 of 2) with L17I, L31I
chain (part 2 of 2): B1 chain (part 2 of 2)
Molecule B11 showed a half-inhibitory concentration (IC50) in the test with human GITR-Fc [1] of 0.83 nM. In test [2], the “EC50 (nM)” value turned out to be 0.9 nM.

B12: hexameric GITRL FP (DMPK variant) (Fc fusion, not shown: a dimerising Fc or GST; small tags and cut ends)
chain (part 1 of 2): IAEIEVTIRELQEAIEEEVLTRQSLSREIEAIRTDIQNIASQLREIEARIRDLEAHVRQLQERMELLQAE
chain (part 2 of 2): B1 chain (part 2 of 2)
In the test with human GITR-Fc [1], B12 returned an IC50 of 2.43 nM. For the same molecule, in test [2], the “EC50 (nM)” value turned out to be 1.39 nM.

B13: hexameric GITRL FP (Langerin variant) (Fc fusion, not shown: a dimerising Fc or GST; small tags and cut ends)
chain (part 1 of 2): ISALNTKIRAIQGSIENMSKLIKRQNDIIQVVS
chain (part 2 of 2): B1 chain (part 2 of 2)
On to B13, for which, in the test with human GITR-Fc [1], the half-inhibitory concentration (IC50) turned out to be 2 nM. Moreover, in test [2], the “EC50 (nM)” value turned out to be 0.75 nM.

B14: mOX40L-FP mIgG1 (Fc fusion)
chain: VPRDCGCKPCICTVPEVSSVFIFPPKPKDVLTITLTPKVTCVVVDISKDDPEVQFSWFVDDVEVHTAQTQPREEQFNSTFRSVSELPIMHQDWLNGKEFKCRVNSAAFPAPIEKTISKTKGRPKAPQVYTIPPPKEQMAKDKVSLTCMITDFFPEDITVEWQWNGQPAENYKNTQPIMDTDGSYFVYSKLNVQKSNWEAGNTFTCSVLHEGLHNHHTEKSLSHSPGKRLDQDKIEALSNKVQQLERSIGLKDLAMADLEQKVSELEVSTSSPAKDPPIQRLRGAVTRCEDGQLFISSYKNEYQTMEVQNNSVVIKCDGLYIIYLKGSFFQEVKIDLHFREDHNPISIPMLNDGRRIVFTVVASLAFKDKVYLTVNAPDTLCEHLQINDGELIVVQLTPGYCAPEGSYHSTVNQVPL
notes: also called murine OX40L FP mIgG1; Mouse OX40L FP mIgG1
On to B14, for which the binding result is on record as “binds” in test [6] and “no binding” in test [7].

B15: hGITRL FP wt (Fc fusion)
chain: QLETAKEPCMAKFGPLPSKWQMASSEPPCVNKVSDWKLEILQNGLYLIYGQVAPNANYNDVAPFEVRLYKNKDMIQTLTNKSKIQNVGGTYELHVGDTIDLIFNSEHQVLKNNTYWGIILLANPQFIS
notes: as for B7
For the molecule B15, the IC50 was determined as 0.696 nM with human GITR-Fc [8] and 0.631 nM with human GITR-Fc [5]. Also, the Kd in the test with human GITR-Fc [3] amounted to 1.23 nM.

B16: hGITRL FP N161D (Fc fusion)
chain: B15 chain with N112D
notes: as for B7
In the test with human GITR-Fc [8], B16 had an IC50 of 0.63 nM. The molecule also yielded a dissociation constant Kd in the test with human GITR-Fc [3] of 1.08 nM.

What is called IC50 is the concentration at which inhibition is half-maximal. A low value points to inhibition by little substance. The term Kd denotes the constant that tells how readily two partners part at equilibrium. A lower Kd goes with a tighter complex.

For the origin of these results see US20170073386A1 (AstraZeneca / MedImmune, published 2017).
